The chains are these.
B1: unnamed (parent)
chain: MDIDPYKEFGATVELLSFLPSDFFPSVRDLLDTASALYREALESPEHCSPHHTALRQAILCWGELMTLATWVGVNLEDPASRDLVVSYVNTNMGLKFRQLLWFHISCLTFGRETVIEYLVSFGVWIRTPPAYRPPNAPILSTLPETTVVRRRGRSPRRRTPSPRRRRSQSPRRRRSQSRESQC

Variants of B1 are the subject of this experiment. Kind of experiment: capsid assembly (Ca assem). The following applies: with partner chain of the complex shown.
Regarding chain 1 S141T V148I V149I, the ratio to parent worked out at 0.98.

On to chain 1 L140A, for which the ratio to parent is 1.32. Turning to chain 1 L143I, the ratio to parent turned out to be 0.97. For chain 1 L143A the value was 1.05; for chain 1 S141D, 1.11. As for chain 1 S141R, the ratio to parent came out at 1.16. For chain 1 S141A the value was 1.03. Consider chain 1 T146D T147D, for which the ratio to parent came out at 1.06.

With chain 1 E145D, the ratio to parent turned out to be 1.05. Take chain 1 T146A T147A: the ratio to parent was found to be 1.08.

Values taken from PMC7861550.
